# Measured values reported in patent US6667173B2, “Nucleic acids encoding platelet derived growth factor-alpha receptors” (The Schepens Eye Research Institute, priority 2000, dated 2003).
# Entries after “also recorded” stand apart in the source; their conditions may differ.
# B1: F7: αPDGFR mutant, Tyr to Phe substitution at 572, 574, 720, 731, 742, 988, and 1018 (protein, UniProt P16234 24-1089, looked up, variant Y572F Y574F Y720F Y731F Y742F Y988F Y1018F)
# Platelet-derived growth …: QLSLPSILPNENEKVVQLNSSFSLRCFGESEVSWQYPMSEEESSDVEIRNEENNSGLFVTVLEVSSASAAHTGLYTCYYNHTQTEENELEGRHIYIYVPDPDVAFVPLGMTDYLVIVEDDDSAIIPCRTTDPETPVTLHNSEGVVPASYDSRQGFNGTFTVGPYICEATVKGKKFQTIPFNVYALKATSELDLEMEALKTVYKSGETIVVTCAVFNNEVVDLQWTYPGEVKGKGITMLEEIKVPSIKLVYTLTVPEATVKDSGDYECAARQATREVKEMKKVTISVHEKGFIEIKPTFSQLEAVNLHEVKHFVVEVRAYPPPRISWLKNNLTLIENLTEITTDVEKIQEIRYRSKLKLIRAKEEDSGHYTIVAQNEDAVKSYTFELLTQVPSSILDLVDDHHGSTGGQTVRCTAEGTPLPDIEWMICKDIKKCNNETSWTILANNVSNIITEIHSRDRSTVEGRVTFAKVEETIAVRCLAKNLLGAENRELKLVAPTLRSELTVAAAVLVLLVIVIISLIVLVVIWKQKPRYEIRWRVIESISPDGHEFIFVDPMQLPYDSRWEFPRDGLVLGRVLGSGAFGKVVEGTAYGLSRSQPVMKVAVKMLKPTARSSEKQALMSELKIMTHLGPHLNIVNLLGACTKSGPIYIITEYCFYGDLVNYLHKNRDSFLSHHPEKPKKELDIFGLNPADESTRSFVILSFENNGDFMDMKQADTTQFVPMLERKEVSKYSDIQRSLYDRPASYKKKSMLDSEVKNLLSDDNSEGLTLLDLLSFTYQVARGMEFLASKNCVHRDLAARNVLLAQGKIVKICDFGLARDIMHDSNYVSKGSTFLPVKWMAPESIFDNLYTTLSDVWSYGILLWEIFSLGGTPYPGMMVDSTFYNKIKSGYRMAKPDHATSEVYEIMVKCWNSEPEKRPSFYHLSEIVENLLPGQYKKSYEKIHLDFLKSDHPAVARMRVDSDNAFIGVTYKNEEDKLKDWEGGLDEQRLSADSGFIIPLPDIDPVPEEEDLGKRNRHSSQTSEESAIETGSSSSTFIKREDETIEDIDMMDDIGIDSSDLVEDSFL
# Tests used:
# PI3K (p85) = assay: Co-immunoprecipitation of the regulatory subunit of PI3K (p85) with αPDGFR mutants in F cells; format: cell-based, mouse; conditions: 50 ng/ml PDGF-BB, 5 minutes
# Method: (§1) The ability of the αPDGFR mutants to undergo ligand dependent tyrosine phosphorylation and to associate with signaling enzymes was then tested. F cells expressing various αPDGFR mutants were grown to subconfluence and serum starved overnight. Cells were either left resting (−) or stimulated with 50 ng/ml PDGF-BB (+) for 5 minutes, and lysed. The αPDGFR was immunoprecipitated with αPDGFR antibody, as described above, and the resulting immunoprecipitates were resolved by 7.5% SDS-PAGE and transferred onto Immobilon. The segment of the blot containing the αPDGFR was first blotted with anti-phosphotyrosine antibodies, then stripped and reprobed with an anti-αPDGFR antibody. Portions of the membrane that contained the proteins of the appropriate molecular mass were immunoblotted for PLCγ, the regulatory subunit of PI3K (p85), or SHP-2. Crude rabbit anti-p85 antibody is from Dr. A. Toker (Beth Israel Hospital/Harvard Medical School, Boston, Mass.). The monoclonal antibodies against PLCγ and SHP-2 were purchased from Upstate Biotechnology Inc.
# GST-PLCγ = assay: In vitro kinase assay of immunoprecipitated mutant αPDGFRs with exogenous substrate; format: biochemical; conditions: 292 immunoprecipitates, [32P]-γ ATP, 30° C., 5 min
# Method: Mutant αPDGFRs were selectively immunoprecipitated with the 292 antibody, and samples representing 2×10^5 cells from 292 antibodies were subjected to an in vitro kinase assay. Immunoprecipitates were preincubated with 2 μg of GST protein for 10 min at 0° C., then 2 μg of Glutathione S-transferase fusion phospholipase C-gamma (GST-PLCγ, an exogenous substrate, 10 μCi of γ-[^32P] ATP (DuPont NEN Research Products, Boston, Mass.), and universal kinase buffer (UKB; 20 mM Pipes, pH 7.0, 10 mM MnCl2, 20 μg/ml aprotinin) were added. The samples were incubated at 30° C. for 5 min. The proteins were separated by 7.5% sodium dodecyl sulfate-polyacrylamide gel electrophoresis (SDS-PAGE), the gel was dried, and the radiolabeled protein was detected by autoradiography.
# rabbit eyes = assay: Rabbit PVR model: F cells expressing αPDGFR mutants injected into the vitreous; format: in vivo; conditions: for potential to induce PVR (PVR score): up to 28 days after the surgery
# Method: PVR was induced in the rabbit eyes as previously described (Andrews, A. et al. (1999) Invest. Ophthalmol. Vis. Sci. 40:2683 and Nakagawa, M. et al. (1995) Invest. Ophthalmol. Vis. Sci. 36:2388). Briefly, gas vitrectomy was performed by injecting 0.4 ml of expanding perfluoropropane gas (C3F8) into the vitreous cavity 4 mm posterior to the corneal limbus under anesthetical condition. Three days later, the rabbits were anesthetized and the pupils were dilated. 0.1 ml DMEM containing 1×10^5 of RCFs expressing empty vector or αPDGFR mutant were injected into the vitreous cavity together with 0.1 ml of PRP using 30 G needle. Ten rabbits underwent surgery for each cell population expressing the empty vector or the truncated, E587K, T665M, D818N, or V859M αPDGFR mutants. One rabbit in the D818N group died just after the surgery, therefore the total number is 9 for this group. The retinal status was evaluated with an indirect ophthalmoscope fitted with a +30 D fundus lens at 1, 4, 7, 14, 21, and 28 days after the surgery. The PVR was graded from 0 through 5 according to the Fastenberg score. Fastenberg, D. M. et al. (1982) Am. J. Ophthalmol. 93:565. The grading is as follows: 0; no abnormality, 1; vitreous strand, 2; traction of the retina, 3; partial retinal detachment (less than 2 quadrant), 4; extended (more than 2 quadrant) but not total retinal detachment, 5; total retinal detachment. All surgeries were performed under aseptic conditions and pursuant to the regulation of the ARVO Statement for the Use of Animals in Ophthalmic and Vision Research. Only the left eye of each rabbit was used for the experiments.
# An important component of PVR is the traction force that is generated when cells of the epiretinal membrane contract. To test if the signaling enzymes that are required for contraction in the in vitro assays also participate in PVR, the cells expressing the various αPDGFR mutants, described in the previous Examples, were assayed in a rabbit PVR model, described above. In this model, rabbits first undergo gas vitrectomy, and then cells are coinjected with […]. The formation of an epiretinal membrane and retinal detachment is observed in living animals over 28 days.
# Briefly, PVR was induced by introducing F cells expressing the indicated αPDGFR into the vitreous of the rabbit eyes. The PVR score was evaluated up to 28 days after the surgery according to the classification described above. The mean value and standard error of the scores in a group were indicated. Each group contained 9 or 10 rabbits; the response to parental F cells was previously reported (Andrews et al., supra), and was included here for comparison purposes.
# PLCγ = assay: Co-immunoprecipitation of PLCγ with αPDGFR mutants in F cells; format: cell-based, mouse; conditions: 50 ng/ml PDGF-BB, 5 minutes
# Method: as §1
# SHP-2 = assay: Co-immunoprecipitation of SHP-2 with αPDGFR mutants in F cells; format: cell-based, mouse; conditions: 50 ng/ml PDGF-BB, 5 minutes
# Method: as §1
# PI3K = assay: In vitro PI3K activity assay of αPDGFR immunoprecipitates; format: biochemical, mouse; conditions: immunoprecipitates of F cells ± 50 ng/ml PDGF-BB
# Method: To measure the PI3K activity that coprecipitated with the PDGFRs, the receptor immunoprecipitates were subjected to an in vitro PI3K kinase assay. Aliquots of the immunoprecipitates used in FIG. 10B were subjected to a PI3K activity assay. This assay detects PI3K that has co-precipitated with the αPDGFR. The PI3K assay was performed as previously described. Kazlauskas, A. et al. (1990) Embo. J. 9:3279. Briefly, immunoprecipitated αPDGFR from approximately 5×10^5 cells were incubated with phosphatidyl inositol in the presence of [^32P]-γATP. The reactions were terminated and the phospholipids were extracted and purified by chromatography. The radioactive product of the reaction (phosphoinositide 3 phosphate) was detected by autoradiography.
# F cells = assay: Collagen gel contraction assay of F cells expressing αPDGFR mutants; format: cell-based, mouse; conditions: PDGF-BB (50 ng/ml), 48 hours
# Method: The contraction assay was based on a previously described reference, Skuta, G. et al. (1999) J. Biol. Chem. 274:30163, with the following modifications. Fα cells were suspended in 1.5 mg/ml of neutralized collagen I (Cohesion vitrogen 100, Palo Alto, Calif.) at a density of 10^6 cells/ml, and were transferred into the 24-well plate (Falcon, Franklyn Lakes, N.J.) that had been preincubated with phosphate-buffer saline (PBS) with 5 mg/ml of bovine serum albumin (BSA) overnight. The gel was solidified by incubating at 37° C. for 90 minutes, and then the well was flooded with DMEM+5 mg/ml of BSA supplemented with an amount of vitreous such that the final concentration of vitreous in the culture medium was 1, 5 or 20%. The gels were incubated at 37° C. with 5% CO2. The initial gel diameter was 15 mm. The media was replaced every 24 hours and the gel diameter was measured after 48 hours. The extent of contraction was calculated by subtracting the diameter of the well at 48 hours from the initial diameter (15 mm). Each experimental condition was assayed in triplicate, and at least three independent experiments were performed. Unpaired t-test was performed to detect statistic difference in contraction assay.
# To determine the signaling pathways that drive contraction, cells expressing the αPDGFR mutants were subjected to the collagen gel contraction assay described above. Accordingly, F cells expressing the indicated αPDGFRs were subjected to the collagen gel assay in the presence of buffer, PDGF-BB (50 ng/ml), TGFβ1 (1 ng/ml), or FBS (10%). The data presented are the mean±standard deviation measured at the 48 hours time point. Each experimental condition was assayed in triplicate, and at least 3 independent experiments were performed.
# αPDGFR [1] = conditions: cited from earlier work
# αPDGFR [2] = assay: Ligand-dependent tyrosine phosphorylation of αPDGFR mutants in F cells; format: cell-based, human; conditions: 50 ng/ml PDGF-BB, 5 minutes
# Method: as §1
# Src family kinases = conditions: cited from earlier work
Molecule,recruitment of PI3K / p85 (Properties) (PI3K (p85)),kinase activity towards exogenous substrate GST-PLCγ (GST-PLCγ),"time until PVR after injection of cells (rabbit eyes; rabbit, in vivo)",recruitment or activation of PLCγ (Properties) (PLCγ),recruitment of SHP-2 (Properties) (SHP-2),PI3K activity coprecipitating with the receptor (PI3K),PDGF-dependent contraction (F cells),potential to induce PVR (PVR score) (rabbit eyes),kinase activity of the receptor (Properties) (αPDGFR [1]),PDGF-dependent tyrosine phosphorylation of the receptor (αPDGFR [2]),recruitment or activation of Src family kinases (Properties) (Src family kinases)
"WT αPDGFR: wild type human αPDGFR, SEQ ID NO: 2, expressed in F cells (Fα cells)",coprecipitated,phosphorylated the exogenous substrate,2-3 weeks,coprecipitated,coprecipitated,coprecipitated,contracted,,,,
"F31/42: αPDGFR mutant, Tyr to Phe substitution at 731 and 742",failed to efficiently associate; also recorded: Fails to recruit PI3K,,,,,did not detectably coprecipitate,did not respond,,,,
"R627: αPDGFR mutant, Lys to Arg substitution at 627, kinase inactive",failed to recruit any of these signaling enzymes,,,failed to recruit any of these signaling enzymes,failed to recruit any of these signaling enzymes,,no contraction,dramatically less able to cause the disease,Kinase inactive,not phosphorylated in response to PDGF,
B1,failed to recruit any of these signaling enzymes; also recorded: Fails to recruit,,,failed to recruit any of these signaling enzymes; also recorded: Fails to recruit,failed to recruit any of these signaling enzymes; also recorded: Fails to recruit,,no contraction,dramatically less able to cause the disease,kinase active,undergoes modest tyrosine phosphorylation,Fails to recruit
